Assay: label from the status in PepcDB records

Row | Sequence | protein production
1 | MAISQMKKLAMVFEKDYLDLVLKTLQQSQLVEVRDMKQLKHWQDAFNKGNVKLPQIVQYDLTHQKPLLDDEALQYLLQSQQELENGLASLSAFLPPIGKLTALRQKTPSLSFKQFEERHRQQAAQTALKMMSQKIERLEQLQSKIDQLTEYCQELEKWRSLTVLPQDLAQFHFLSARVGTIPSTANNHFYHQLKQHKGLFIEEVYHTEFEYGLVLFWQAQDTIHLQKYQFKPLLYKEQLLPSEQLRINKELLTNWLAEKDSLLKELRQSQKILAQLQVEIDYVLSQYQRQQTKKQLLGTRHLIALEGWIEADSVNQLKGLMTKTLGDMFYLDSYDVTPDDWEDVPIKLRNHRYIAPFELVTEMYALPKYQEKDPTPFLAPLYLTFFGMMVADLGYGLLLYAVTLAALVFFNLQKTSKRLVTFFNILAISVAIWGLIYGSFFGFDLPVALLSTKTDVITILVVSLLFGFVTLIFGLLLGAWQQVRMKAYATAYTSSLAWTFILLGLLLFILGKNVSGLAYLSVIGKWLALGNAFGILVVSLLKSKSLLGLGSGLYNLYGISSYLSDLVSFTRLMALGLSGASIGAAFNMIVGIFPPVTRFTVGIFIFILLHAINIFLSMLSGYVHGARLIFVEFFGKFYEGGGKAFNPLKLADNYVNVNEETDLEDN | failed
2 | MDSSREANRKHDAEEKREDEKTSLMEVNLMVVLLSQLSTKKEDENGLEKERRDHVAHEARESRARANKRFMKDTKLMEKRTHVLQPMAKEFRHYRKM | failed
3 | MSKLAQIVQKLKKQGIEAAVLSDPVSINYLTGFYSDPHERLMFLFLFADQEPLLFLPELDALRAKSILDISVTGYLDFENPLEKIKTLLPKTNYSKIALEFDNLNVTKFKGLETIFSGQFTNLTPLINRMRLIK | failed
4 | MPAPTHGCPLPRFSVIVPAYKVQAYLHECLESVLEQSFPDLELIAVDDCSPDACGAIIDEFAARDTRVRPVHLPQNTGLGRARNAALAEATGDYLIFLDADDSLTPGALQAVADRIKETSEPDVLVYDYARTFWSGETVRNREAGQLTEQGPAPFRLDDRPGLLNVLMVVWNKAYRREFVEREGFTFPPGLYEDTPWTYPALMAAETVATLDRVCVHYRQRRRGNILGTTGRGHFDIFGQYDRVFAYLDGHPELAHWRPVLFRRMVDHVATVFTRRGRLPRGSHAEFLRRARAHYRRHRTPGPPARPRFRLRHVLVRLGSHRTYRLLSLASRTRVRTARSATAVLGRLAGVALQAHYRLQRRLPVRADRAVFASHQGQGHGCNPGALEAAFRTLAPHIRTAWIARPEHHHTVPAATRRVRPGSAAYWTALARSKYLVSNADFDRRLRKRPGQIVIQTHAGTPLKRMGLDLQDRPAAARDTDFAQVLRGADQWDYCLSANRHSTLVWERVFPSGFTTLEYGQPRNDRFQQATSADVTRLRESLGIPHGSVAILYAPTYRDYRRSQRHLLDLERVLRQLGPRYVVLTRAHPSYGAPLTRSDGARLIDVSGHPSVESLCLASDALVTDYSSLMFDYANLDRPIVVYADDWEAYEAARGTYFDLRAFPPGAVARTEEELIDIFATGHWRGSRAAQLRAAFRARFCPYDDGRAAERVVRRIVLGEGAREGERNSEGDGGATGLPPVVPLAGRHPVPSAAAALARPPLATVPHPAGPVPVVDSP | failed
5 | MQARWIGNMMFHVRTDSNHDVLMDTKEEVGGKDAAPRPLELVLTGLMGCTGMDVVSILRKMKVIDQMKDFRIEIEYERTEEHPRIFTKVHLKYIFKFDGEPPKDKVEKAVQLSQEKYCSVSAILKCSSKVTYEIVYEN | not failed
6 | MKIKPPLPTVTRTHARALRKELTDAERALWRCLRSNQLHDFKFRRQHPIPPYIADFCCIDAALIIELDGSQHQASSDQARTRWLQSKGWTVLRFWNNDVLFSLDAVVETIFKMVATPYPHPNPSPGGRGA | failed
7 | MALSTEKKVGFFFMAGLVVLGVMLELGERWNPFEKNLPYVTYLSSTTGLKVGDPVRLAGVEVGKITRIDIEDGRVKVGFEVKPGTRIKTDSVATIRLTNLLGGQFLGISFGTQTADILAPGSEVKSREIANIDIIVDNVSDLTKDARTFLNDLNTNQNEVLGKISTMLDENRGNLKGAVQNLNSITAKMDRGEGSLAMLLNDKALYQNTNELATSLKTVTGKIERGEGSLGKLVNEDALYVEAKGALAELNAGAKDIKEIAAKINKGEGSVGKLVHDEALYNELRDASKNISDVARKINEGQGTLGKLVNDDKLYRDTAAAMKKLDKAADGLSDSGPISVLGSVVGTLF | failed
8 | MTCLFSDAPIPDHLYGAIVALGNFDGFHLGHQAVVAAAVARGHAEGRPVIVATFDPHPVRFFCPDLPPFALTTIPQRARLFEKAGADATFVIRFSEAMANLSPEEFIQQQIIDHLKAAGVVTGRDFTFGKGRKGGVDLLQAMGQNLNISVDTIMPVCDQQGAISSTRIREALKQGDPETAARLLSRP | failed
9 | SSALSRNGSFITKEKKDTVLRQVRLDPCDLQPIFDDMLHFLNPEELRVIEEIPQAEDKLDRLFEIIGVKSQEASQTLLDSVYSHLPDLL | not failed
10 | MVKLNSNPSEKGTKPPSVEDGFQTVPLITPLEVNHLQLPAPEKVIVKTRTEYQPEQKNKGKFRVPKIAEFTVTILVSLALAFLACIVFLVVYKAFTYDHSCPEGFVYKHKRCIPASLDAYYSSQDPNSRSRFYTVISHYSVAKQSTARAIGPWLSAAAVIHEPKPPKTQGH | failed
11 | MTHSQQSMVDTFRASLFDNQDITVADQQIQALPYSTMYLRLNEGQRIFVVLGYIEQEQSKWLSQDNAMLVTHNGRLLKTVKLNNNLLEVTNSGQDPLRNALAIKDGSRWTRDILWSEDNHFRSATLSSTFSFAGLETLNIAGRNVLCNVWQEEVTSTRPEKQWQNTFWVDSATGQVRQSRQMLGAGVIPVEMTFLKPAPLEHHHHHH | not failed
12 | KCETKEKGAITAKELYTMMTDKNISLIIMDARRMQDYQDSCILHSLSVPEEAISPGVTASWIEAHLPDDSKDTWKKRGNVEYVVLLDWFSSAKDLQIGTTLRSLKDALFKWESKTVLRNEPLVLEGGYENWLLCYPQYTTNAKV | not failed
13 | MSLNHHPIIYLVDHQKDARAALSKLLSPLDVTIQCFASAESFMRQQISDDAIGMIIEAHLEDKKDSGIELLETLVKRGFHLPTIVMASSSDIPTAVRAMRASAADFIEKPFIEHVLVHDVQQIINGAKEGHHHHHH | not failed
14 | MKFSVLMSLYIKENPQFLRECFESLVAQTRQADEIVLVFDGVVTPDLEFVVTEFETKLPLKLVKLPQNRGLGKALNEGLLHCDYDWVFRMDTDDICVPDRFEKQVAFIEQHPESIIFGGQIAEFGKNVNDIVAYRNVPTSAQEIIKFTQKRCPFNHMTVAYQKSAVINCGGYEDLQEDYYLWIKLVAQGLYMANLPDILVYARVGNGMVLEHHHHHH | not failed
15 | MIEKIVKEMTLKEKVGQLNQHLYGWQCYQKVNGKYELTDLFKEHVKEYGGVGAIYGILRADAWSQINRENGISREDSKIVITMIQEYIKKHSRFEIPALISEECVHGHMALGAPVFPTNLAMGMTWNPDLMERITHNVSQELAAKGGNLALFTGFDVLRDPRWGRSEECFSEDAYLTSCMTSAAVHGFQKEKNGVAVVVKHLCAQGGCVGGHNSDAALIGPRELREIHLPPVKAAIDAGAKAVMAAYNEIDGIPCHINKALLFETLRKEYDFSGIVMADGCALDRLLLLDDDILKVGSLALKAGVDLSLWDNVYLRLDEAIKQGYLTEEELDQAVLRVLRLKEELGLWEELNTYSLPEASDLLLQAARECQVLLKNNDSLLPLSSKQKIAVIGPNANHYLNQLGDYTAYQNKSDIVTVYDGICQKTEISPIYVQGCSIRGRKFDIEPALVAAKAADIVILVLGGNSTRLYQDTFENNGAVKANQENQMNCGENIDLASLELEGYQNELLLALKEVNPHIVTVLIQGRPHVINTVLKHSQAVLASFYPGSRGGEGIADVLFGDYNPSGHLSVSIPQHVGQLPCYYNHKHNGAQKDYVDMPGEALLPFGYGLSYSQFIYRDIKVPKAIKITDLLENGIDLQLEIYNNSTYDGEDVIQVYLKDHQASVVSRVIELKAFNKVKIQAYQSKQISIHLTSDAFAIWNYEMKYLVEPGDVSICIGVDSKHYQEFKLTLVK | failed
16 | MMMKIGDKLKGKITGIKPYGAFVQLENGSIGLIHISEIKTGYIDNIYQTLSVGQEVLVQVVDYDEYSQKASLSLRTLEEEKHHYQHRHRFSNNRLNIGFKPLEEHLPIWVEENLDYLKKDQDESDNQAKD | failed
17 | YTEQPIDLVPTQPLPNASFDNFKLTCSNTKFADDLNQMTGFTKPASRELSVTFFPDLNGDVVAIDYRHYSASFKKGAKLLHKPIVWHINQATTKTTFKPNTWCLRCLWSTKPVDT | not failed
18 | FDENWGADEELLLIDACETLGLGNWADIADYVGNARTKEECRDHYLKTYIE | not failed
19 | MPDLPLAPEALDLSPAFLEVAACPACHSRFALDFDSGELVCSSPSCGLAFLVRDGVPDLRLDAARKRETGQGVTAEDTEAFEPTHRHEMRPQ | failed
20 | MNVWQVVGYKHSGKTTLMEKWVAAAVREGWRVGTVKHHGHGGEPARPEGVDSVRHERAGAVATAVEGDGLLQLHLRRPLWRLDDVLALYAPLRLDLVLVEGYKQERHPKVVLVRSEEDWASLQHLANIRAVIAWEPLEGPLAHPVFSLADDDEYIPWLMNEVRTRT | not failed
21 | MQKVVLATGNVGKVRELASLLSDFGLDIVAQTDLGVDSAEETGLTFIENAILKARHAAKVTALPAIADDSGLAVDVLGGAPGIYSARYSGEDATDQKNLQKLLETMKDVPDDQRQARFHCVLVYLRHAEDPTPLVCHGSWPGVITREPAGTGGFGYDPIFFVPSEGKTAAELTREEKSAISHRGQALKLLLDALRNG | not failed
22 | MVHETDKDPAPAVGPLASAMPRGNFAASLRSPGAKFLMIGFISLVLLVPLLLVWGLTEERASRAREVSARIANGWGGDQVVNGPYLAVPFDVERRREVDGRTIVDRTTEWALVMPETLQVTADLKTEEKKLSIYSLPVYNGALVLKGRFGQGVLQDLARFAGTPRLDNAILVLSIGDITGIRSSAGVRINGGAVLPFDPGMRDMSVIASRALENNSIRSDAGVHRQIDRNLIESGFDFDIAFSLNGSGSFAVAPAGQTTSFTAKADWPHPGFEGLFLPEVKTVTAADFNASWTIPYLARGIDRVVEGPRLPLSNSLMTINLVEPVKFYQVIARTLKYSIGFISLVFLAVFIVELKGGSVVHWIQYVLTGLALIVFYVLLLALAEHTGFTVAYAAASFSTAALIAFYLGSATRSRRNGLALFSVLAVAYGVMYLVLNEDEYALLAGAVISFIAIAATMFATRKVDWSGAGTAANSEFSSRT | failed
23 | SADSEADKPLRKISAAFKKLAIIVNSPNPEVPVTQFSHACSLVSPLFGCLGIAFKFAEMDYVAKVDDLVRASSSISTLVVMMDKDIEADCVRKAGSHTRNLLRVKRGLDMVKVLFEQIIASEGDNSLKDPATKSYAQVFAPHHGWAIRKAVSLGMYALPTRAHLLNMLKEDEAAAKIHMQSYVNSSAPLITYLDNLFLSKQLGIDW | failed
